Test results as given in PMC5554173.

Key:
[1] = spotting on 7H11 OADC plates; settings: glycan lost
[2] = glycan lost

Row | Protein | other: colony formation on solid medium [1] | other: invasion and growth in macrophages [2]
1 | LprG (Rv1411c): LprG T231A (protein) parent chain: MRTPRRHCRRIAVLAAVSIAATVVAGCSSGSKPSGGPLPDAKPLVEEATAQTKALKSAHMVLTVNGKIPGLSLKTLSGDLTTNPTAATGNVKLTLGGSDIDADFVVFDGILYATLTPNQWSDFGPAADIYDPAQVLNPDTGLANVLANFADAKAEGRDTINGQNTIRISGKVSAQAVNQIAPPFNATQPVPATVWIQETGDHQLAQAQLDRGSGNSVQMTLSKWGEKVQVTKPPVS | no change | 
2 | LprG (Rv1411c): lprG A691G (T231A) (protein) parent chain: MRTPRRHCRRIAVLAAVSIAATVVAGCSSGSKPSGGPLPDAKPLVEEATAQTKALKSAHMVLTVNGKIPGLSLKTLSGDLTTNPTAATGNVKLTLGGSDIDADFVVFDGILYATLTPNQWSDFGPAADIYDPAQVLNPDTGLANVLANFADAKAEGRDTINGQNTIRISGKVSAQAVNQIAPPFNATQPVPATVWIQETGDHQLAQAQLDRGSGNSVQMTLSKWGEKVQVTKPPVS |  | no change
